From US5215888A, “Kit for assaying the cellular integrity of blood platelets” (Yeda Research and Development Co. Ltd., priority 1988, dated 1993)
Ends that are not written are not given here.

Tests used:
PKA = biological target: T1, PKA (Homo sapiens, UniProt P17612); test: Inhibition of vitronectin phosphorylation by PKA in the presence of competing peptide; assay type: biochemical; conditions: for inhibition of the phosphorylation of vitronectin by PKA (in words): competitive
T1 construct: pure catalytic subunit of PKA from rabbit muscle; from tissue
Text: Peptides containing the sequence Arg-Arg-Pro-X-Arg (X=Ser, Thr, Ala, Cys, Tyr) inhibit the phosphorylation of vitronectin by PKA.
FIG. 5 Inhibition of vitronectin phosphorylation by PKA in the presence of the indicated concentrations of a peptide identical in sequence to the site phosphorylated in vitronectin.

[1] = system: vitronectin phosphorylation by PKA; test: Phosphorylation of vitronectin at various pH in the presence or absence of heparin; assay type: biochemical; conditions: 3-fold molar excess of heparin over vitronectin (2.7 μM); FIG. 6
Method: The phosphorylation of vitronectin (p75 and mainly the p65 form) is affected by pH and by the presence of heparin in the reaction mixture (FIG. 6).
FIG. 6 Vitronectin (2.7 μM was incubated for 2 h at 22° C. with C (1 μg/ml) in the presence of Mg(CH3 COO)2 (10 mM), [γ^32 ]ATP 50 μM, 0.5 Ci/mmol), (50 Mes at the indicated pH), and a 3-fold molar excess of heparin over vitronectin (where indicated). The reaction was terminated by boiling in Laemli's sample buffer and the extent of phosphorylation was analyzed by polyacrylamide gel electrophoresis and autoradiography.

Row | Substance | inhibition of the phosphorylation of vitronectin by PKA (in words) (PKA) | Ki (PKA; FIG. 5, peptide competes as alternative substrate, read-out: Ki concentration for inhibition of the phosphorylation of vitronectin by PKA) | effect on the amount of phosphorylation of vitronectin [1]
1 | -Arg-Arg-Pro-Ser-Arg- (RRPSR; printed: Arg-Arg-Pro-Ser-Arg-) | competitively inhibit | – | –
2 | SRRPSRAT | compete with (inhibit) | 30 µM | –
3 | heparin | – | – | increase
